Source: US20070093646A1 (BIOTIE THERAPIES, published 2007)

Target: the molecule itself
Assay: X-ray crystal structure, 3.2 A, molecular replacement; one dimer per asymmetric unit
Method: One crystal was mounted in a capillary and preliminary X-ray analysis was carried out in-house using a rotating-anode radiation source (Cu Kα radiation, 50 kV, 150 mA) and MAR345 image plate detector. The crystal, however, diffracted to only 8 Å resolution and the space group could not be accurately determined. All further X-ray analysis, as well as data collection, was carried out using synchrotron radiation at the beamline X11 (EMBL/DESY Hamburg, Germany) equipped with a MAR Research CCD detector. For data collection, the crystals were cryo-protected with 20% (v/v) glycerol and flash-frozen in a 100 K nitrogen stream. Diffraction data, collected from three different crystals, were processed with the program XDS. The solvent content and Matthews coefficient were calculated assuming a molecular weight of 90 kDa per monomer and using the CCP4 suite.
The structure of VAP-1 was solved by molecular replacement using the program AMORE (Navaza, 1994) of the CCP4i program suite (Collaborative Computational Project, 1994). This method confirmed that the space group of VAP-1 crystals was P6522 with one biological unit, a dimer per asymmetric unit. […]
Electron density maps were calculated with FFT of CCP4i suite and were predictable enough to trace the VAP-1 polypeptide, even though, at the beginning of building, in several fragments. […]

B1: human vascular adhesion protein-1 (VAP-1) (enzyme)
chain: MNQKTILVLLILAVITIFALVCVLLVGRGGDGGEPSQLPHCPSVSPSAQPWTHPGQSQLFADLSREELTAVMRFLTQRLGPGLVDAAQARPSDNCVFSVELQLPPKAAALAHLDRGSPPPAREALAIVFFGRQPQPNVSELVVGPLPHPSYMRDVTVERHGGPLPYHRRPVLFQEYLDIDQMIFNRELPQASGLLHHCCFYKHRGRNLVTMTTAPRGLQSGDRATWFGLYYNISGAGFFLHHVGLELLVNHKALDPARWTIQKVFYQGRYYDSLAQLEAQFEAGLVNVVLIPDNGTGGSWSLKSPVPPGPAPPLQFYPQGPRFSVQGSRVASSLWTFSFGLGAFSGPRIFDVRFQGERLVYEISLQEALAIYGGNSPAAMTTRYVDGGFGMGKYTTPLTRGVDCPYLATYVDWHFLLESQAPKTIRDAFCVFEQNQGLPLRRHHSDLYSHYFGGLAETVLVVRSMSTLLNYDYVWDTVFHPSGAIEIRFYATGYISSAFLFGATGKYGNQVSEHTLGTVHTHSAHFKVDLDVAGLENWVWAEDMVFVPMAVPWSPEHQLQRLQVTRKLLEMEEQAAFLVGSATPRYLYLASNHSNKWGHPRGYRIQMLSFAGEPLPQNSSMARGFSWERYQLAVTQRKEEEPSSSSVFNQNDPWAPTVDFSDFINNETIAGKDLVAWVTAGFLHIPHAEDIPNTVTVGNGVGFFLRPYNFFDEDPSFYSADSIYFRGDQDAGACEVNPLACLPQAAACAPDLPAFSHGGFSHN
modifications: topaquinone (Tpq471) formed by post-translational modification of an intrinsic tyrosine at 471; N-glycan attached to Asn232; one copper ion per monomer in the active site
notes: Full-length protein was crystallized; Only residues A55-A761 and B57-B761 are modelled in the structure, with a few gaps; PDB entries are printed as IPU4 (probably 1PU4) and 1US1; also called hVAP-1; HVAP-1
B1: binds.
